In paper PMC8626070 (Science Advances, 2021):

Key:
Assay in all cases: oriented sample solid-state NMR
[1] = biological target: wild-type sarcolipin (SLN^wt), recombinant (UniProt O00631 1-31)
[2] = biological target: SLN^ΔI3N4T5 (sarcolipin with I3, N4 and T5 deleted) (UniProt O00631 1-31, ΔI3N4T5)
[3] = biological target: SLN^ΔY29Q30Y31 (sarcolipin with Y29, Q30 and Y31 deleted) (UniProt O00631 1-31, ΔY29Q30Y31)
[4] = biological target: SLN^ΔT5R6E7 (sarcolipin with T5, R6 and E7 deleted) (UniProt O00631 1-31, ΔT5R6E7)

Measured: binding result

B1: sarcoplasmic reticulum Ca2+-ATPase SERCA1a purified from rabbit skeletal muscle (enzyme)
chain: MEAAHSKSTEECLAYFGVSETTGLTPDQVKRHLEKYGHNELPAEEGKSLWELVIEQFEDLLVRILLLAACISFVLAWFEEGEETITAFVEPFVILLILIANAIVGVWQERNAENAIEALKEYEPEMGKVYRADRKSVQRIKARDIVPGDIVEVAVGDKVPADIRILSIKSTTLRVDQSILTGESVSVIKHTEPVPDPRAVNQDKKNMLFSGTNIAAGKALGIVATTGVSTEIGKIRDQMAATEQDKTPLQQKLDEFGEQLSKVISLICVAVWLINIGHFNDPVHGGSWIRGAIYYFKIAVALAVAAIPEGLPAVITTCLALGTRRMAKKNAIVRSLPSVETLGCTSVICSDKTGTLTTNQMSVCKMFIIDKVDGDFCSLNEFSITGSTYAPEGEVLKNDKPIRSGQFDGLVELATICALCNDSSLDFNETKGVYEKVGEATETALTTLVEKMNVFNTEVRNLSKVERANACNSVIRQLMKKEFTLEFSRDRKSMSVYCSPAKSSRAAVGNKMFVKGAPEGVIDRCNYVRVGTTRVPMTGPVKEKILSVIKEWGTGRDTLRCLALATRDTPPKREEMVLDDSSRFMEYETDLTFVGVVGMLDPPRKEVMGSIQLCRDAGIRVIMITGDNKGTAIAICRRIGIFGENEEVADRAYTGREFDDLPLAEQREACRRACCFARVEPSHKSKIVEYLQSYDEITAMTGDGVNDAPALKKAEIGIAMGSGTAVAKTASEMVLADDNFSTIVAAVEEGRAIYNNMKQFIRYLISSNVGEVVCIFLTAALGLPEALIPVQLLWVNLVTDGLPATALGFNPPDLDIMDRPPRSPKEPLISGWLFFRYMAIGGYVGAATVGAAAWWFMYAEDGPGVTYHQLTHFMQCTEDHPHFEGLDCEIFEAPEPMTMALSVLVTIEMCNALNSLSENQSLMRMPPWVNIWLLGSICLSMSLHFLILYVDPLPMIFKLKALDLTQWLMVLKISLPVIGLDEILKFIARNYLEG
binds: all assays above
